“And” between values parts separate entries of the source, which are not always exact repeats. Equal values may be shown once.
settings: Homo sapiens; pH 5; 25 °C; GdnHCl; CD; Sodium acetate 50 mM; structure 1TTG

Chain of Fibronectin I1596A, P02751 (P02751 whole entry I1596A): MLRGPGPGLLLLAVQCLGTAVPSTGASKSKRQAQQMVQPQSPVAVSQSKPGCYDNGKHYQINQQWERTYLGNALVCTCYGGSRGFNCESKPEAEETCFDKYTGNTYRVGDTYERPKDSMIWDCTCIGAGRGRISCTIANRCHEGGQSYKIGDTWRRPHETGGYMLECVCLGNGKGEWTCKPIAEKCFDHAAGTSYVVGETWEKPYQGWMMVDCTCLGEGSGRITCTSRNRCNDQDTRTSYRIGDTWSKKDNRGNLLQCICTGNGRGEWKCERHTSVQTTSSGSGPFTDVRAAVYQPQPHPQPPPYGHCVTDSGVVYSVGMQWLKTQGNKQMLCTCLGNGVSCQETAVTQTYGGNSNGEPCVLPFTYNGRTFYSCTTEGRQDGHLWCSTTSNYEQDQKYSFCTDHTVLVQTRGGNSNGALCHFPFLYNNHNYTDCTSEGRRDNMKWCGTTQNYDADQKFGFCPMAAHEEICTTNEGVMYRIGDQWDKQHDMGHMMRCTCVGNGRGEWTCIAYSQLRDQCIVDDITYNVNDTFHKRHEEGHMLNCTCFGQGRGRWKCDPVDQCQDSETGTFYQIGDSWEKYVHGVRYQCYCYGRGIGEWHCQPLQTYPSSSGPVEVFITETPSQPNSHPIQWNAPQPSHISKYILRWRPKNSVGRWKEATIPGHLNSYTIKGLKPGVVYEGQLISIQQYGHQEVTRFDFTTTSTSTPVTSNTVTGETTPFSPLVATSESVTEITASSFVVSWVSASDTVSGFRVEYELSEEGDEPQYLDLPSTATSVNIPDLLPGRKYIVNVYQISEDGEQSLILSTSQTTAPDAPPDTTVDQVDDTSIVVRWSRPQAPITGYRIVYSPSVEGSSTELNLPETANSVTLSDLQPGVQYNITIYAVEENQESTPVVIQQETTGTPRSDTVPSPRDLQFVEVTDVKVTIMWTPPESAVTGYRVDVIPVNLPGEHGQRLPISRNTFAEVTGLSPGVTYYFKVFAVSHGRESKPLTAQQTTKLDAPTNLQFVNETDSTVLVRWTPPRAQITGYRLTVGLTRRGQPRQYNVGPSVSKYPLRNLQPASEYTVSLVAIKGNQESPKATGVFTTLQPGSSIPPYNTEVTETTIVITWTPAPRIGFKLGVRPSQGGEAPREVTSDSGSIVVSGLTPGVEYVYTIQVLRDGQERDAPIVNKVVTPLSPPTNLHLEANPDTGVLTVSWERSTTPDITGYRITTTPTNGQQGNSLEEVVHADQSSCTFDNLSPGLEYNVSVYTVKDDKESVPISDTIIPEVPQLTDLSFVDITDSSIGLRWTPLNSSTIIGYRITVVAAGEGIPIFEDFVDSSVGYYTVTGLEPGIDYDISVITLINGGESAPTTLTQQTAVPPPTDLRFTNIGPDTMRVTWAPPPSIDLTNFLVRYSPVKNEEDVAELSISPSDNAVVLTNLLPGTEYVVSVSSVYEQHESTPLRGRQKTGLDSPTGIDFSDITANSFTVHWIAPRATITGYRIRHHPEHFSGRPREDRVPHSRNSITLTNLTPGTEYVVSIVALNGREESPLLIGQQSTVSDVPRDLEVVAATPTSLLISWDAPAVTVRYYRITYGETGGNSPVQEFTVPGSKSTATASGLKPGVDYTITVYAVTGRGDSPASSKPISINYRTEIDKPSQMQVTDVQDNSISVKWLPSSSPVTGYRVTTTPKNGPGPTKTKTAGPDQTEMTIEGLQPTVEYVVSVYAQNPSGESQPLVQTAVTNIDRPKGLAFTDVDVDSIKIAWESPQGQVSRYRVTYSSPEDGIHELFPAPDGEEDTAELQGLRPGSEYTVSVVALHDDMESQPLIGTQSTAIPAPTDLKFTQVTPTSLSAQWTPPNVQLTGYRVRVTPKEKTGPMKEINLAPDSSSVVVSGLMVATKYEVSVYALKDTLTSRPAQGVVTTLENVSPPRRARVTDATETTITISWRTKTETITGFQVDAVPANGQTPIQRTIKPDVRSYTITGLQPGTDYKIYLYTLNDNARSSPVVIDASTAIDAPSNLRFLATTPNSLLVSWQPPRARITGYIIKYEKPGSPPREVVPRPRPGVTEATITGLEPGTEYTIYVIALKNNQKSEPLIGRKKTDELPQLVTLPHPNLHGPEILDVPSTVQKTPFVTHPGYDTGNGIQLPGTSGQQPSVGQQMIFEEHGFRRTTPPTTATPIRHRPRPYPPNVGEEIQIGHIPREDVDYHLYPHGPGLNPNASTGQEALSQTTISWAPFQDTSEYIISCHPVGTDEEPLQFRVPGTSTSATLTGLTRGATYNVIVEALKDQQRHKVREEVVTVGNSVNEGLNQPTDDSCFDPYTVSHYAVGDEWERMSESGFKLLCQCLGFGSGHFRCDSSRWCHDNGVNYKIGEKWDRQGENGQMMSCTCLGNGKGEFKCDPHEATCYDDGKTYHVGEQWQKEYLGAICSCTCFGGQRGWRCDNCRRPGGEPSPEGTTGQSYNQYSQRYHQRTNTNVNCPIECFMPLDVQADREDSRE
Chain of Fibronectin Y1629A, P02751 (P02751 whole entry Y1629A): as the sequence (P02751 whole entry I1596A) above, with A1596I, Y1629A counted along it

Going from Fibronectin A1550G, P02751 to Fibronectin A1594G, P02751, the “ddG of mutation (higher = less stable)” value rises from 0.93 kcal/mol to 2.81 kcal/mol.

Going from Fibronectin A1611G, P02751 to Fibronectin F1585A, P02751, the “ddG of mutation (higher = less stable)” value rises from 1.38 kcal/mol to 2.16 kcal/mol.

Going from Fibronectin I1571A, P02751 to Fibronectin I1571V, P02751, the “ddG of mutation (higher = less stable)” value falls from 5.02 kcal/mol to 0.41 kcal/mol.

First: Fibronectin I1596A, P02751
Second: Fibronectin I1596V, P02751
The “ddG of mutation (higher = less stable)” value of the first is higher: 3.66 kcal/mol for the first, 1.12 kcal/mol for the second.

Compared with Fibronectin I1607A, P02751, Fibronectin I1625A, P02751 is lower in “ddG of mutation (higher = less stable)” value: 3.72 kcal/mol for the first, 0.35 kcal/mol for the second.

Fibronectin I1625V, P02751 and Fibronectin I1627A, P02751 are the same in “ddG of mutation (higher = less stable)” value: 0.35 kcal/mol for the first, 0.35 kcal/mol for the second.

Going from Fibronectin I1627V, P02751 to Fibronectin L1545A, P02751, the “ddG of mutation (higher = less stable)” value rises from 0.28 kcal/mol to 1.64 kcal/mol.

Going from Fibronectin L1555A, P02751 to Fibronectin L1599A, P02751, the “ddG of mutation (higher = less stable)” value rises from 0.87 kcal/mol to 2.94 kcal/mol.

Going from Fibronectin P1542A, P02751 to Fibronectin P1562A, P02751, the “ddG of mutation (higher = less stable)” value rises from -0.11 kcal/mol to 0.48 kcal/mol.

First: Fibronectin P1601A, P02751
Second: Fibronectin S1622A, P02751
The “ddG of mutation (higher = less stable)” value of the first is higher: 0.41 kcal/mol for the first, -0.11 kcal/mol for the second.

Compared with Fibronectin V1547A, P02751, Fibronectin V1566A, P02751 is higher in “ddG of mutation (higher = less stable)” value: 1.38 kcal/mol for the first, 1.45 kcal/mol for the second.

First: Fibronectin V1587A, P02751
Second: Fibronectin V1603A, P02751
The “ddG of mutation (higher = less stable)” value of the first is higher: 2.42 kcal/mol for the first, 0.67 kcal/mol for the second.

Going from Fibronectin Y1569F, P02751 to Fibronectin Y1573A, P02751, the “ddG of mutation (higher = less stable)” value rises from 0.41 kcal/mol to 2.29 kcal/mol.

Going from Fibronectin Y1605F, P02751 to Fibronectin Y1629A, P02751, the “ddG of mutation (higher = less stable)” value falls from 2.03 kcal/mol to 1.19 kcal/mol.

For Fibronectin Y1629F, P02751, the “ddG of mutation (higher = less stable)” value was -0.11 kcal/mol.

First: Fibronectin A1550G, P02751
Second: Fibronectin A1594G, P02751
The denaturant m value of the first is lower: 6.1 kcal/mol/M for the first, 7.1 kcal/mol/M for the second.

Compared with Fibronectin A1611G, P02751, Fibronectin F1585A, P02751 is higher in denaturant m value: 6.2 kcal/mol/M for the first, 6.8 kcal/mol/M for the second.

Fibronectin I1571A, P02751 and Fibronectin I1571V, P02751 are the same in denaturant m value: 6.9 kcal/mol/M for the first, 6.9 kcal/mol/M for the second.

First: Fibronectin I1596A, P02751
Second: Fibronectin I1596V, P02751
The denaturant m value of the first is higher: 7.2 kcal/mol/M for the first, 7.1 kcal/mol/M for the second.

Going from Fibronectin I1607A, P02751 to Fibronectin I1625A, P02751, the denaturant m value rises from 5.6 kcal/mol/M to 6.03 kcal/mol/M.

First: Fibronectin I1625V, P02751
Second: Fibronectin I1627A, P02751
The denaturant m value of the first is higher: 6.5 kcal/mol/M for the first, 6 kcal/mol/M for the second.

First: Fibronectin I1627V, P02751
Second: Fibronectin L1545A, P02751
The denaturant m value of the first is higher: 6.3 kcal/mol/M for the first, 6.2 kcal/mol/M for the second.

First: Fibronectin L1555A, P02751
Second: Fibronectin L1599A, P02751
The denaturant m value of the first is lower: 6.3 kcal/mol/M for the first, 6.6 kcal/mol/M for the second.

Compared with Fibronectin P1542A, P02751, Fibronectin P1562A, P02751 is higher in denaturant m value: 6.4 kcal/mol/M for the first, 6.5 kcal/mol/M for the second.

Going from Fibronectin P1601A, P02751 to Fibronectin S1622A, P02751, the denaturant m value falls from 6.6 kcal/mol/M to 6.5 kcal/mol/M.

First: Fibronectin V1547A, P02751
Second: Fibronectin V1566A, P02751
The denaturant m value of the first is higher: 6.8 kcal/mol/M for the first, 6.6 kcal/mol/M for the second.

Compared with Fibronectin V1587A, P02751, Fibronectin V1603A, P02751 is higher in denaturant m value: 5.7 kcal/mol/M for the first, 6.12 kcal/mol/M for the second.

First: Fibronectin Y1569A, P02751
Second: Fibronectin Y1569F, P02751
The denaturant m value of the first is higher: 6.8 kcal/mol/M for the first, 6.3 kcal/mol/M for the second.

Compared with Fibronectin Y1569L, P02751, Fibronectin Y1573A, P02751 is higher in denaturant m value: 6.6 kcal/mol/M for the first, 7.9 kcal/mol/M for the second.

Compared with Fibronectin Y1605F, P02751, Fibronectin Y1629A, P02751 is higher in denaturant m value: 6.2 kcal/mol/M for the first, 6.6 kcal/mol/M for the second.

Work on Fibronectin Y1629F, P02751 yielded a denaturant m value of 6.5 kcal/mol/M.

Fibronectin A1550G, P02751 and Fibronectin A1594G, P02751 are within 1.5-fold of each other in “denaturant midpoint (higher = more stable)” value (“denaturant midpoint” below): 1.33 M for the first, 1.04 M for the second.

Fibronectin A1611G, P02751 and Fibronectin F1585A, P02751 are within 1.5-fold of each other in “denaturant midpoint” value: 1.26 M for the first, 1.14 M for the second.

First: Fibronectin I1571A, P02751
Second: Fibronectin I1571V, P02751
The “denaturant midpoint” value of the first is 2-fold lower: 0.7 M for the first, 1.41 M for the second.

Fibronectin I1596A, P02751 and Fibronectin I1596V, P02751 are within 1.5-fold of each other in “denaturant midpoint” value: 0.91 M for the first, 1.3 M for the second.

Compared with Fibronectin I1607A, P02751, Fibronectin I1625A, P02751 is 1.6-fold higher in “denaturant midpoint” value: 0.9 M for the first, 1.42 M for the second.

Fibronectin I1625V, P02751 and Fibronectin I1627A, P02751 are the same in “denaturant midpoint” value: 1.42 M for the first, 1.42 M for the second.

Fibronectin I1627V, P02751 and Fibronectin L1545A, P02751 are within 1.5-fold of each other in “denaturant midpoint” value: 1.43 M for the first, 1.22 M for the second.

Fibronectin L1555A, P02751 and Fibronectin L1599A, P02751 are within 1.5-fold of each other in “denaturant midpoint” value: 1.34 M for the first, 1.02 M for the second.

Fibronectin P1542A, P02751 and Fibronectin P1562A, P02751 are within 1.5-fold of each other in “denaturant midpoint” value: 1.49 M for the first, 1.4 M for the second.

Fibronectin P1601A, P02751 and Fibronectin S1622A, P02751 are within 1.5-fold of each other in “denaturant midpoint” value: 1.41 M for the first, 1.49 M for the second.

Fibronectin V1547A, P02751 and Fibronectin V1566A, P02751 are within 1.5-fold of each other in “denaturant midpoint” value: 1.26 M for the first, 1.25 M for the second.

Fibronectin V1587A, P02751 and Fibronectin V1603A, P02751 are within 1.5-fold of each other in “denaturant midpoint” value: 1.1 M for the first, 1.37 M for the second.

Compared with Fibronectin Y1569A, P02751, Fibronectin Y1569F, P02751 is 1.8-fold higher in “denaturant midpoint” value: 0.8 M for the first, 1.41 M for the second.

Fibronectin Y1569L, P02751 and Fibronectin Y1573A, P02751 are within 1.5-fold of each other in “denaturant midpoint” value: 1.04 M for the first, 1.12 M for the second.

Fibronectin Y1605F, P02751 and Fibronectin Y1629A, P02751 are within 1.5-fold of each other in “denaturant midpoint” value: 1.16 M for the first, 1.29 M for the second.

For Fibronectin Y1629F, P02751, the “denaturant midpoint” value was 1.49 M.

With Fibronectin Y1569A, P02751 the “ddG of mutation (higher = less stable)” value was 4.37 kcal/mol and 3.96 kcal/mol.
In the case of Fibronectin Y1569L, P02751, the “ddG of mutation (higher = less stable)” value is reported as 2.81 kcal/mol and 2.4 kcal/mol.

same assay, conditions: Homo sapiens; pH 5; 25 °C; GdnHCl; Fluorescence; Sodium acetate 50mM; transition: 2; structure 1FNF

Going from Fibronectin I1627A, P02751 to Fibronectin I1627V, P02751, the “ddG of mutation (higher = less stable)” value falls from 3.66 kcal/mol to 1.12 kcal/mol.

First: Fibronectin I1627A, P02751
Second: Fibronectin I1627V, P02751
The denaturant m value of the first is higher: 7.2 kcal/mol/M for the first, 7.1 kcal/mol/M for the second.

Fibronectin I1627A, P02751 and Fibronectin I1627V, P02751 are within 1.5-fold of each other in “denaturant midpoint” value: 1.04 M for the first, 0.91 M for the second.

Compared with Fibronectin I1627A, P02751, Fibronectin I1627V, P02751 is higher in unfolding free energy: 5.74 kcal/mol for the first, 8.28 kcal/mol for the second.

same assay, conditions: Homo sapiens; pH 5; 25 °C; GdnHCl; Fluorescence; Sodium acetate 50mM; transition: 2; structure 1TEN

Going from Tenascin, P24821 A819G to Tenascin, P24821 E887A, the “ddG of mutation (higher = less stable)” value falls from 2.8 kcal/mol to -1.61 kcal/mol.

Compared with Tenascin, P24821 E887G, Tenascin, P24821 F889A is higher in “ddG of mutation (higher = less stable)” value: 0.34 kcal/mol for the first, 5.43 kcal/mol for the second.

Going from Tenascin, P24821 A819G to Tenascin, P24821 E887A, the denaturant m value rises from 2.31 kcal/mol/M to 5.04 kcal/mol/M.

Tenascin, P24821 A819G and Tenascin, P24821 E887A are the same in “denaturant midpoint” value: 1.3 M for the first, 1.3 M for the second.

same assay, conditions: Homo sapiens; pH 5; 25 °C; Urea; CD; Sodium acetate 50 mM; structure 1TEN

Going from Tenascin, P24821 A819G to Tenascin, P24821 E887A, the “ddG of mutation (higher = less stable)” value falls from 2.8 kcal/mol to -1.61 kcal/mol.

Going from Tenascin, P24821 E887G to Tenascin, P24821 F889A, the “ddG of mutation (higher = less stable)” value rises from 0.34 kcal/mol to 5.43 kcal/mol.

Compared with Tenascin, P24821 A819G, Tenascin, P24821 E887A is lower in denaturant m value: 1.3 kcal/mol/M for the first, 1.2 kcal/mol/M for the second.

Substance Tenascin, P24821 E887G has a denaturant m value of 1.3 kcal/mol/M.

First: Tenascin, P24821 A819G
Second: Tenascin, P24821 E887A
The “denaturant midpoint” value of the first is 2.2-fold lower: 3.03 M for the first, 6.64 M for the second.

Compared with Tenascin, P24821 E887G, Tenascin, P24821 F889A is 5.6-fold lower in “denaturant midpoint” value: 5.04 M for the first, 0.9 M for the second.
